Reference: PMC7374715, “Conservation of Cdc14 phosphatase specificity in plant fungal pathogens: implications for antifungal development” (Scientific Reports, 2020)
Where two headings read alike, the source gives them in different places.

What was measured:
[1] = substrate: Cc1cc(=O)oc2c(F)c(OP(=O)(O)O)c(F)cc12; assay: purified protein, by the assay type; settings: other: DiFMUP, 0.5 nM enzyme, pH 7.5, 30 °C, mean of 3 ± SD
Protocol: All enzyme concentrations were 0.5 nM, except for PsCdc14 and VHR, which were assayed at 2 and 5 nM, respectively. Fluorescence intensity was measured continuously on a Synergy H1 microplate reader (BioTek) with excitation and emission wavelengths set at 358 and 450 nm, respectively. Fluorescence intensity was converted to product concentration using a 6,8-difluoro-4-methylumbelliferone standard curve. Background fluorescence was subtracted from each reaction and initial rates were calculated from the slope of the linear portion of the product concentration versus time plots. kcat and KM were calculated as described above.

[2] = substrate: O=[N+]([O-])c1ccc(OP(=O)(O)O)cc1; format: biochemical, Botrytis cinerea; settings: other: pNPP, 25 mM HEPES pH 7.5, 30 °C, mean of 3 ± SD
Protocol: (§1) Activities towards varying concentrations of para-nitrophenyl phosphate (pNPP) were measured in 100 µL assay buffer (25 mM HEPES pH 7.5, 2 mM TCEP, 1 mM EDTA, and 150 mM NaCl) at 30 °C. Enzyme concentrations were chosen to achieve absorbance values within the linear response range while satisfying the steady-state assumption where substrate consumption was < 1%. Reactions were initiated by enzyme addition and stopped with 1 N NaOH. Absorbance at 405 nm was measured on a Synergy H1 microplate reader (BioTek) and converted to product concentration using a para-nitrophenol standard curve. Initial rates were plotted as a function of substrate concentration and fit with the Michealis-Menten equation in GraphPad Prism (Version 8) to determine kcat and KM.

[3] = substrate: O=[N+]([O-])c1ccc(OP(=O)(O)O)cc1; format: biochemical, Saccharomyces cerevisiae; settings: other: pNPP, 25 mM HEPES pH 7.5, 30 °C, mean of 3 ± SD
Protocol: as §1

Protein	Km [1] [mM]	kcat [1] [s⁻¹]	kcat/Km [1] [M⁻¹ s⁻¹]	Km [2] [mM]	kcat [2] [s⁻¹]	kcat/Km [2] [M⁻¹ s⁻¹]	Km [3] [mM]	kcat [3] [s⁻¹]	kcat/Km [3] [M⁻¹ s⁻¹]
BcCdc14 (Botrytis cinerea B05.10) (protein) MHPMDYNSMLEWATLLPNDAHPGASAKKGPKDPREEDRPFHWLTYTDRLYLASYTTPPSPDTLFPYPEQQSSRRSPTKRSARAADGPSVVSDKREPPHYFSVDDTLLYNAFHHDFGPLHIGHLYRFAVQFHDILGAPENKNKPVVFWSKADARSRANAACLLATYMVLIQSWAPHLALAPIAQADPPLMPFRDAGYSQADYGITVQDVVYGVWRAKEQGFCALPQFDLEEYERYERVDQGDFNWLTPDFLAFASPQHHPVQPILPSSPLYASLPTTLEDVDTHPTLPTPFKNVLKHFTSRNIGLVVRLNSELYSPSFFTALGIEHLDMIFDDGTCPPLSVVRKFITLAHEMITVQKRGIAVHCKAGLGRTGCLIGAYLIYRYGFTANEIIAYMRFMRPGMVVGPQQHWLHLNQGTFREWWIEEQFEIRMKEKLANMAPVTPRKGHYTSKSQVVTPPNGNQRTPLGEVDNERSHSIGAQEDYLPAPTPGQPRK	0.034 ± 0.007	1 ± 0.2	43100 ± 11000	16 ± 2	0.38 ± 0.003	24 ± 2			
ScCdc14 (Saccharomyces cerevisiae S288C) (protein, made in house; host or cells: E. coli BL21 AI) MRRSVYLDNTIEFLRGRVYLGAYDYTPEDTDELVFFTVEDAIFYNSFHLDFGPMNIGHLYRFAVIFHEILNDPENANKAVVFYSSASTRQRANAACMLCCYMILVQAWTPHQVLQPLAQVDPPFMPFRDAGYSNADFEITIQDVVYGVWRAKEKGLIDLHSFNLESYEKYEHVEFGDFNVLTPDFIAFASPQEDHPKGYLATKSSHLNQPFKSVLNFFANNNVQLVVRLNSHLYNKKHFEDIGIQHLDLIFEDGTCPDLSIVKNFVGAAETIIKRGGKIAVHCKAGLGRTGCLIGAHLIYTYGFTANECIGFLRFIRPGMVVGPQQHWLYLHQNDFREWKYTTRISLKPSEAIGGLYPLISLEEYRLQKKKLKDDKRVAQNNIEGELRDLTMTPPSNGHGALSARNSSQPSTANNGSNSFKSSAVPQTSPGQPRKGQNGSNTIEDIN	0.011 ± 0.003	3 ± 0.4	253000 ± 34000				23 ± 1	1.12 ± 0.08	50 ± 4
